# Target: HLA-A*02:01 (Homo sapiens, UniProt P04439, D140Y/D185E/D98H/E176V/E277Q/G131W/G231S/I119V/I121R/I166T/I218V/L300P/L318F/N151K/N90K/P208A/P217A/Q86G/Q94H/R138H/R169H/T345S)
# Experiment: MHC binding assay: UV-ligand exchange with β2m ELISA (peptide exchange yield)
# Settings: MHC class I binding score; binding to HLA-A*02:01 ranged by peptide exchange yield (UV-ligand exchange, β2m ELISA)
# Excerpt: Candidate peptides for T cell based therapies according to the present invention were further tested for their MHC binding capacity (affinity). The individual peptide-MHC complexes were produced by UV-ligand exchange, where a UV-sensitive peptide is cleaved upon UV-irradiation, and exchanged with the peptide of interest as analyzed. Only peptide candidates that can effectively bind and stabilize the peptide-receptive MHC molecules prevent dissociation of the MHC complexes. To determine the yield of the exchange reaction, an ELISA was performed based on the detection of the light chain (β2m) of stabilized MHC complexes. The assay was performed as generally described in Rodenko et al. (Rodenko et al., 2006).
# 96 well MAXISorp plates (NUNC) were coated over night with 2 ug/ml streptavidin in PBS at room temperature, washed 4× and blocked for 1 h at 37° C. in 2% BSA containing blocking buffer. Refolded HLA-A*02:01/MLA-001 monomers served as standards, covering the range of 15-500 ng/ml. Peptide-MHC monomers of the UV-exchange reaction were diluted 100 fold in blocking buffer. Samples were incubated for 1 h at 37° C., washed four times, incubated with 2 ug/ml HRP conjugated anti-β2m for 1 h at 37° C., washed again and detected with TMB solution that is stopped with […]. Absorption was measured at 450 nm. Candidate peptides that show a high exchange yield (preferably higher than 50%, most preferred higher than 75%) are generally preferred for a generation and production of antibodies or fragments thereof, and/or T cell receptors or fragments thereof, as they show sufficient avidity to the MHC molecules and prevent dissociation of the MHC complexes.
row,Substance,Peptide Exchange
1,148 (SIVASLITV; listed as Homo sapiens) [compound 148],″+++″ (≥50 = +++)
2,193 (YLDLSNNRL; listed as Homo sapiens) [compound 193],″+++″ (≥50 = +++)
3,124 (LLLEETEKQAV; listed as Homo sapiens) [compound 124],″+++″ (≥50 = +++)
4,339 (GLWGTVVNI; listed as Homo sapiens) [compound 339],″+++″ (≥50 = +++)
5,254 (QLIPKLIFL; listed as Homo sapiens) [compound 254],″+++″ (≥50 = +++)
6,245 (KIMDYSLLLGV; listed as Homo sapiens) [compound 245],″++++″ (≥75% = ++++)
7,131 (LQALEVLKI; listed as Homo sapiens) [compound 131],″+″ (≥10% = +)
8,185 (VMDDQRDLI; listed as Homo sapiens) [compound 185],″++″ (≥20% = ++)
9,300 (ILLNPAYDVYL; listed as Homo sapiens) [compound 300],″+++″ (≥50 = +++)
10,198 (YLTFLPAEV; listed as Homo sapiens) [compound 198],″+++″ (≥50 = +++)
11,92 (ILEPLNPLL; listed as Homo sapiens) [compound 92],″+++″ (≥50 = +++)
12,89 (ILDFGTFQL; listed as Homo sapiens) [compound 89],″+++″ (≥50 = +++)
13,38 (FIMEGGAMV; listed as Homo sapiens) [compound 38],″+++″ (≥50 = +++)
14,127 (LLPTAPTTV; listed as Homo sapiens) [compound 127],″+++″ (≥50 = +++)
15,97 (LLFATQITL; listed as Homo sapiens) [compound 97],″++″ (≥20% = ++)
16,351 (ALSEKLARL; listed as Homo sapiens) [compound 351],″+++″ (≥50 = +++)
17,10 (FVYGESVEL; listed as Homo sapiens) [compound 10],″+++″ (≥50 = +++)
18,22 (ALWDPVIEL; listed as Homo sapiens) [compound 22],″+++″ (≥50 = +++)
19,239 (ILAGEMLSV; listed as Homo sapiens) [compound 239],″+++″ (≥50 = +++)
20,362 (ILTELGGFEV; listed as Homo sapiens) [compound 362],″+++″ (≥50 = +++)

row,Substance,Peptide Exchange
1,314 (LMKDCEAEV; listed as Homo sapiens) [compound 314],″+++″ (≥50 = +++)
2,207 (IIADLDTTIMFA; listed as Homo sapiens) [compound 207],″+++″ (≥50 = +++)
3,157 (SLNIRDFTM; listed as Homo sapiens) [compound 157],″+++″ (≥50 = +++)
4,317 (NLLAHIWAL; listed as Homo sapiens) [compound 317],″+++″ (≥50 = +++)
5,107 (ILYNLYDLL; listed as Homo sapiens) [compound 107],″+++″ (≥50 = +++)
6,90 (VIADLGLIRV; listed as Homo sapiens) [compound 90],″+++″ (≥50 = +++)
7,229 (FLLNLQNCHL; listed as Homo sapiens) [compound 229],″++++″ (≥75% = ++++)
8,347 (YLGPVSPSL; listed as Homo sapiens) [compound 347],″+++″ (≥50 = +++)
9,132 (LVYEAIIMV; listed as Homo sapiens) [compound 132],″+++″ (≥50 = +++)
10,352 (ALVFELHYV; listed as Homo sapiens) [compound 352],″+++″ (≥50 = +++)
11,325 (TLENGVPCV; listed as Homo sapiens) [compound 325],″+++″ (≥50 = +++)
12,237 (GLQENLDVVV; listed as Homo sapiens) [compound 237],″++++″ (≥75% = ++++)
13,342 (SLITPLQAV; listed as Homo sapiens) [compound 342],″+++″ (≥50 = +++)
14,216 (WLAGDVPAA; listed as Homo sapiens) [compound 216],″+++″ (≥50 = +++)
15,141 (QILSEIVEA; listed as Homo sapiens) [compound 141],″++″ (≥20% = ++)
16,28 (AVLHLLLSV; listed as Homo sapiens) [compound 28],″++″ (≥20% = ++)
17,234 (GLDDAEYAL; listed as Homo sapiens) [compound 234],″++″ (≥20% = ++)
18,18 (LLGEFSIKM; listed as Homo sapiens) [compound 18],″+++″ (≥50 = +++)
19,309 (ILYGTQFVL; listed as Homo sapiens) [compound 309],″+++″ (≥50 = +++)
20,169 (TLLLGLTEV; listed as Homo sapiens) [compound 169],″+++″ (≥50 = +++)

row,Substance,Peptide Exchange
1,87 (HQIEAVDGEEL; listed as Homo sapiens) [compound 87],″++″ (≥20% = ++)
2,295 (ALLQKLQQL; listed as Homo sapiens) [compound 295],″+++″ (≥50 = +++)
3,250 (LLVQEPDGLMV; listed as Homo sapiens) [compound 250],″+++″ (≥50 = +++)
4,160 (SLSFLVPSL; listed as Homo sapiens) [compound 160],″+++″ (≥50 = +++)
5,236 (GLLESGRHYL; listed as Homo sapiens) [compound 236],″+++″ (≥50 = +++)
6,7 (ALLERTGYTL; listed as Homo sapiens) [compound 7],″+++″ (≥50 = +++)
7,83 (GQGEVLVYV; listed as Homo sapiens) [compound 83],″+++″ (≥50 = +++)
8,333 (VTLEFPQLIRV; listed as Homo sapiens) [compound 333],″+++″ (≥50 = +++)
9,372 (SLFGPLPGPGPALV; listed as Homo sapiens) [compound 372],″+++″ (≥50 = +++)
10,253 (NLWSVDGEVTV; listed as Homo sapiens) [compound 253],″+++″ (≥50 = +++)
11,378 (YILGKFFAL; listed as Homo sapiens) [compound 378],″+++″ (≥50 = +++)
12,316 (MLLEHGITL; listed as Homo sapiens) [compound 316],″+++″ (≥50 = +++)
13,155 (SLMLEVPAL; listed as Homo sapiens) [compound 155],″+++″ (≥50 = +++)
14,133 (YLLSGDISEA; listed as Homo sapiens) [compound 133],″+++″ (≥50 = +++)
15,375 (VLWFKPVEL; listed as Homo sapiens) [compound 375],″+++″ (≥50 = +++)
16,318 (NLQVTQPTV; listed as Homo sapiens) [compound 318],″+++″ (≥50 = +++)
17,178 (VLFFNVQEV; listed as Homo sapiens) [compound 178],″+++″ (≥50 = +++)
18,29 (AVLQAVTAV; listed as Homo sapiens) [compound 29],″+++″ (≥50 = +++)
19,331 (VLWELAHLPTL; listed as Homo sapiens) [compound 331],″+++″ (≥50 = +++)

# From US10117916B2, “Peptides and combination of peptides for use in immunotherapy against CLL and other cancers” (immatics biotechnologies GmbH, priority 2015, dated 2018)
